Test results as given in the supplement of paper PMC7877785.
± gives the uncertainty stated by the source.

Assay: self-splicing fitness, log relative to wild type (ln ratio); higher = more splicing; Tetrahymena group I intron in knt gene, E. coli kanamycin selection, DiMSum; sequences stand for … in CUCUCU…GGAGGGAAAAGUUAUCAGGCAUGCACCUGGUAGCUAGUCUUUAAACCAAUAGAUUGCAUCGGUUUAAAAGGCAAGACCGUCAAAUUGCGGGAAAGGGGUCAACAGCCGUUCAGUACCAAGUCUCAGGGGAAACUUUGAGAUGGCCUUGCAAAGGGUAUGGUAAUAAGCUGACGGACAUGGUCCUAACCACGCAGCCAAGUCCUAAGUCAACAGAUCUUCUGUUGAUAUGGAUGCAGUUCACAGACUAAAUGUCGGUCGGGGAAGAUGUAUUCUUCUCAUAAGAUAUAGUCGGACCUCUCCUUAAUGGGAGCUAGCGGAUGAAGUGAUGCAACACUGGAGCCGCUGGGAACUAAUUUGUAUGCGAAAGUAUAUUGAUUAGUUUUGGAGUACUCGUGGUCG
Outline: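 Colonies from six replicate transformations of E. coli BL21(DE3) were pooled and amplicon-sequenced on an Illumina HiSeq 2500. The library placed an intron with all eight P1ex-region nucleotides randomised inside the knt kanamycin-resistance gene on pET-22b(+), and cells grew overnight at 37°C or 30°C on LB agar with or without 25 μg/mL kanamycin (plus 100 μg/mL carbenicillin, 50 μM IPTG, 0.2% rhamnose). Fitness is the DiMSum error-weighted combination of wild-type-normalised replicate fold changes, kanamycin versus none.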

Sequence	self-splicing fitness (ln) (30 °C)	self-splicing fitness (ln) (37 °C)
UGCAAGCAAUAUUACGAAGG	-1.6 ± 0.12	-1.47 ± 0.2
CCAGAGCAAUAUUACGUUUU	-3.06 ± 0.18	-2.62 ± 0.21
CGUGAGCAAUAUUACGAUCU	-0.613 ± 0.088	-0.995 ± 0.14
AAUGAGCAAUAUUACGAUAG	-3.68 ± 0.27	-2.04 ± 0.34
UUGAAGCAAUAUUACGUCUC	-3.24 ± 0.28	-1.28 ± 0.23
ACCCAGCAAUAUUACGGUAC	-2.51 ± 0.081	-0.741 ± 0.078
GAUCAGCAAUAUUACGUCGA	-1.35 ± 0.084	-0.202 ± 0.096
GCGGAGCAAUAUUACGGAUU	-3.69 ± 0.27	-1.28 ± 0.2
GCGAAGCAAUAUUACGAGUA	-2.13 ± 0.3	-1.28 ± 0.19
GACAAGCAAUAUUACGGAAA	-2.13 ± 0.2	-2 ± 0.23
UGAAAGCAAUAUUACGUCUU	-1.69 ± 0.074	-0.659 ± 0.073
AAAGAGCAAUAUUACGGUCC	-3.16 ± 0.44	-0.864 ± 0.38
AGGCAGCAAUAUUACGCAGC	-4.21 ± 0.42	-2.84 ± 0.31
CACAAGCAAUAUUACGCGUC	-2.54 ± 0.13	-2.15 ± 0.18
UCUUAGCAAUAUUACGUACG	-1.58 ± 0.083	-0.522 ± 0.088
CUGAAGCAAUAUUACGCAGG	-1.8 ± 0.082	-1.77 ± 0.12
CUGCAGCAAUAUUACGAUGU	-3.96 ± 0.23	-2.71 ± 0.3
UCCGAGCAAUAUUACGCUCU	-3.31 ± 0.4	–
CAUGAGCAAUAUUACGCGGG	-1.45 ± 0.14	-2.46 ± 0.28
CCCCAGCAAUAUUACGAUAA	–	-1.49 ± 0.22
UCUGAGCAAUAUUACGCACC	-3.59 ± 0.45	–

Sequence	self-splicing fitness (ln) (30 °C)	self-splicing fitness (ln) (37 °C)
UUUGAGCAAUAUUACGUACU	-3.28 ± 0.43	–
GUUUAGCAAUAUUACGACAU	-0.224 ± 0.014	0.063 ± 0.033
UGGUAGCAAUAUUACGCGUC	-3.94 ± 0.43	-2.52 ± 0.35
AACUAGCAAUAUUACGUGAA	-1.86 ± 0.081	-1.51 ± 0.11
CCAAAGCAAUAUUACGGCUC	-3.44 ± 0.29	-2.32 ± 0.25
UCGCAGCAAUAUUACGCUAA	-1.96 ± 0.14	-1.72 ± 0.15
CGACAGCAAUAUUACGAUGC	-3.57 ± 0.17	-1.92 ± 0.18
GCUCAGCAAUAUUACGAGUA	-0.337 ± 0.098	-0.433 ± 0.1
AGUAAGCAAUAUUACGUUAG	-1.71 ± 0.33	–
GUACAGCAAUAUUACGCGAC	-4.09 ± 0.28	-1.87 ± 0.16
ACCCAGCAAUAUUACGGACC	-0.974 ± 0.073	-0.347 ± 0.089
CCCAAGCAAUAUUACGAUCG	-3.46 ± 0.19	-2.93 ± 0.19
CGCGAGCAAUAUUACGUUGA	-3.51 ± 0.25	-2.05 ± 0.2
UAGCAGCAAUAUUACGUACU	-1.74 ± 0.1	-0.434 ± 0.1
CUACAGCAAUAUUACGACAU	-3.878 ± 0.021	-2.67 ± 0.037
CGUUAGCAAUAUUACGCUUG	-1.71 ± 0.12	-1.26 ± 0.15
CCGCAGCAAUAUUACGCUCG	-1.9 ± 0.07	-1.41 ± 0.094
CCGAAGCAAUAUUACGAGCU	-3.83 ± 0.27	-2.47 ± 0.19
GCGUAGCAAUAUUACGCGUC	-2.75 ± 0.28	-2.06 ± 0.46
AUCGAGCAAUAUUACGCCCU	-3.05 ± 0.36	–
UUAGAGCAAUAUUACGCCGG	-0.922 ± 0.19	0.69 ± 0.36

Sequence	self-splicing fitness (ln) (30 °C)	self-splicing fitness (ln) (37 °C)
AGCAAGCAAUAUUACGUUCA	-0.99 ± 0.081	-0.464 ± 0.1
AUUCAGCAAUAUUACGACGC	-0.246 ± 0.11	0.397 ± 0.14
GGGGAGCAAUAUUACGAUUG	-2.02 ± 0.45	-1.67 ± 0.45
CAGGAGCAAUAUUACGUCCA	-2.02 ± 0.16	-1.08 ± 0.24
UCCUAGCAAUAUUACGGAUA	-2.52 ± 0.2	-0.547 ± 0.13
GUUAAGCAAUAUUACGCAAA	-2.21 ± 0.27	-2.21 ± 0.22
GGUCAGCAAUAUUACGUCCA	-1.63 ± 0.11	-1.02 ± 0.1
ACAAAGCAAUAUUACGAACU	-0.4 ± 0.055	0.248 ± 0.075
CGAGAGCAAUAUUACGGGCG	-2.3 ± 0.14	-1.39 ± 0.18
ACUCAGCAAUAUUACGCCUC	-0.758 ± 0.095	-1.13 ± 0.13
CGGAAGCAAUAUUACGUCGA	-2.59 ± 0.19	-1.67 ± 0.18
UCCAAGCAAUAUUACGGCAG	-4.85 ± 0.46	-2.84 ± 0.28
CAAAAGCAAUAUUACGAUAU	-4.43 ± 0.25	-2.23 ± 0.18
AUAAAGCAAUAUUACGUUAU	-0.793 ± 0.064	-0.4 ± 0.11
AUUGAGCAAUAUUACGGAUC	-4.03 ± 0.47	-2.65 ± 0.38
CACUAGCAAUAUUACGGAGG	-2.39 ± 0.1	-0.627 ± 0.1
CUUAAGCAAUAUUACGGGCG	-0.789 ± 0.13	-0.48 ± 0.14
AUGUAGCAAUAUUACGACUU	-0.0543 ± 0.089	-0.312 ± 0.088
AUCAAGCAAUAUUACGCUCU	-0.452 ± 0.07	0.0492 ± 0.082
GUGCAGCAAUAUUACGGGUA	-2.35 ± 0.1	-2.12 ± 0.12
